Laboratory results published in patent US20230303667A1.

B1: 9.6.3A06 (antibody, V domains shown)
VH: EVQLLESGGGLVKPGGSLRLSCAASGFTFNEYMMNWVRQPPGKGLEWVSSISGTSTYINYADSVKGRFTISRDNAKNSLYLQMNSLRSDDTAMYYCARGSTGGYWGQGTLITVSS
VL: DIVMTQTPLSSAVTLGQPASISCRSSQRLVHSDGNTYLSWLHQRPGQPPRLLIYKVSLRFSGVPDRFSGSGAGTDFTLKISRVEAEDVGIYYCMQATQFPLTFGGGTKVEIK
B2: 2.10.1E06 (antibody, V domains shown)
VH: EVQLVESGGGLIQPGGSLRLSCTASGFTFSKFAMSWVRQAPGRGLEWISYISGGSKTKYYADSVRGRFTISRDNAKGSLFLQMNSLRAEDTAIYFCAKKGWQSTFLGMDYFYGMDVWGKGTTVTVSS
VL: EIVLTQSPGTLSLSPGERATLSCRASQSVTSNYLAWYQQKPGQAPRVLIYGASSRATGIPDRFSGSGSGTDFTLTISRLEPEDFAVYYCQQFGASPPYSFGQGTKVEIK
B3: 5.6.c2618 (antibody, V domains shown)
VH: QVQLVQSGAEVKKPGASVNLSCKGSGYSFRTYYIHWVRQAPGQGLEWMGIINSSGGGTTYAQKFQGRVTMTRDTSTSTVYMELRSLKYEDTAMYYCARDRFPTVSGEPFAMDVWGQGTTVTVSS
VL: EVVLTQSPVTLSLSPGERATLSCRASQSVSGYLAWYQQKPGQVPRLLIYDTSNRATGIPARFSGSGSGTDFTLTISTIEPEDFAVYYCQQRSKWGVTFGGGTKVDIK
B4: 5.1.13G03 (antibody, V domains shown)
VH: QVQLQESGPGLVKPSGTLSLTCAVSGGSISSTNWWSWVRQPPGKGLEWIGEIYHSGSTNYNPSLKSRVTISLDKSKDQFSLKLSSVTAADTAVYYCAYSNTWTGGWGQGTLVTVSS
VL: DIQMTQSPSSLSASVGDRVTITCRASQSISSYLNWYQQKPGKAPKVLIYSAFSLQNGVPSRFSGSGSGTDFTLTISSLQPEDFATYYCQQSYSTPRTFGQGTKVEIK
B5: 5.1.7D03 (antibody, V domains shown)
VH: EVQLVQSGGGLAQPGGSLRLSCAASGFTFRSYDMHWVRQVTGKGLEWVSAIGTAGDTYYTGSVKGRFTISRENDKSSLYLQMSSLRGEDTAVYYCARAAFGSHYFDYWGQGTLVTVSS
VL: EIVLTQSPGTLSLSPGERAALSCRASQSVSGNYFAWYQQKSGQAPRLLISAASSRATGVPDRFSASGSGTDFTLTISRLEPEDSAVYYCQQYGSSPLTFGQGTKVEIK
B6: 9.6.1A09 (antibody, V domains shown)
VH: EVQLVESGGGLVQPGGSLRLSCAASGFTFRSYDMDWFRQSTGKGLEWVSAIGSAGDTYYTDSVKGRFTISRENGKNSLYLQMNSLRAGDTAVYYCARARFGDNVFDLWGRGTLVTVSS
VL: DIVMTQSPDSLAVSLGERASINCKSSQSVLSSSNTKNYLAWYQHKPGQPPKLLIYWASTRESGVPDRFSGSGSGTDFTLTISSLQPEDVAVYYCQQYYGAPYTFGQGTKVEIK

Molecular target: Ebola Zaire (Kikwit strain) glycoprotein (Ebola Zaire (Kikwit strain)) (UniProt P87666)
Assay: cell-based or functional assay

Chain of Ebola Zaire (Kikwit strain) glycoprotein (Ebola Zaire (Kikwit strain)) (P87666 33-676 limits assumed): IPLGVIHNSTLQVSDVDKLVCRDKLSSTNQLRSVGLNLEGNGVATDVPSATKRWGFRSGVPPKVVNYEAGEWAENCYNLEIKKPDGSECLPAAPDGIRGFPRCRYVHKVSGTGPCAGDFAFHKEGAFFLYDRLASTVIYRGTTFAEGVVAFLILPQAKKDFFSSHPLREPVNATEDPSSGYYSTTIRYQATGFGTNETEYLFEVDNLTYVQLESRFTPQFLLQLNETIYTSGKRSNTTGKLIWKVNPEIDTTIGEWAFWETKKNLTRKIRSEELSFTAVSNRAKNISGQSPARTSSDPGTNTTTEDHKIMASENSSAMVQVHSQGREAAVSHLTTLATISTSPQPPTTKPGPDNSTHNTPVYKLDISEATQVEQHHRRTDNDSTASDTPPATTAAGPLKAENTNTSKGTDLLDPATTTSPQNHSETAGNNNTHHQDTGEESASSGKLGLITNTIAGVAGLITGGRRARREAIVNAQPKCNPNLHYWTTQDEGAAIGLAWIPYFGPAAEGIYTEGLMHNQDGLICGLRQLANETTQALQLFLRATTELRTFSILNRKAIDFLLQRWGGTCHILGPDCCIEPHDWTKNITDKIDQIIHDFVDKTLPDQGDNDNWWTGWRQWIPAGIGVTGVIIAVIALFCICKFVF

| Binder | PRNT50 (ug/ml) for Ebola Zaire (Kikwit strain) |
| --- | --- |
| B1 | 0.0488 µg/mL |
| B2 | 0.781 µg/mL |
| B3 | 0.0061 µg/mL |
| B4 | 0.0978 µg/mL |
| B5 | 1.57 µg/mL |
| B6 | 0.781 µg/mL |
